Here are results for two molecules from paper PMC8666006 (Cancer cell, 2020).

The target in the assay is MutLα (MLH1-PMS2) (human, UniProt P40692 1-756; P54278 1-862). Nature of the assay: co-IP.
MutLα (MLH1-PMS2), sequence (P40692 whole entry, chain 1 of 2): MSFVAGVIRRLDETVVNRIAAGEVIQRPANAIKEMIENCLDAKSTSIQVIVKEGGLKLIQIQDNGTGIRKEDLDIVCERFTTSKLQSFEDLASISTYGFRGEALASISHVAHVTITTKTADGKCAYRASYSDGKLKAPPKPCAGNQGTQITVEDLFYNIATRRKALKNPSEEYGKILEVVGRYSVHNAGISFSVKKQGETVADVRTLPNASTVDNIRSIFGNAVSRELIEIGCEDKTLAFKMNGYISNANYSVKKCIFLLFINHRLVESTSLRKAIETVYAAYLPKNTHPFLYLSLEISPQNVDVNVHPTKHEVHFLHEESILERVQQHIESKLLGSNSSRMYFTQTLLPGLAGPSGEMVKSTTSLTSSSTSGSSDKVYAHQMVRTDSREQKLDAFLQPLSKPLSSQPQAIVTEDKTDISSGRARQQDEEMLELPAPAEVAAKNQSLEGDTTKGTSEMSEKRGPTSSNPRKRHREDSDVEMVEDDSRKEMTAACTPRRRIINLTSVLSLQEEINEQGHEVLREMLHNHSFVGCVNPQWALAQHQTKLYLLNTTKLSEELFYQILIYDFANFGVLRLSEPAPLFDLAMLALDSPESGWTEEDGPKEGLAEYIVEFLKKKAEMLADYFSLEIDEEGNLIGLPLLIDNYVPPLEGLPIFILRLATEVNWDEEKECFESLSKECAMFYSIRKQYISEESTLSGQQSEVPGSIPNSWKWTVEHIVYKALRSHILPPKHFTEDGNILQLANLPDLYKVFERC
MutLα (MLH1-PMS2), sequence (P54278 whole entry, chain 2 of 2): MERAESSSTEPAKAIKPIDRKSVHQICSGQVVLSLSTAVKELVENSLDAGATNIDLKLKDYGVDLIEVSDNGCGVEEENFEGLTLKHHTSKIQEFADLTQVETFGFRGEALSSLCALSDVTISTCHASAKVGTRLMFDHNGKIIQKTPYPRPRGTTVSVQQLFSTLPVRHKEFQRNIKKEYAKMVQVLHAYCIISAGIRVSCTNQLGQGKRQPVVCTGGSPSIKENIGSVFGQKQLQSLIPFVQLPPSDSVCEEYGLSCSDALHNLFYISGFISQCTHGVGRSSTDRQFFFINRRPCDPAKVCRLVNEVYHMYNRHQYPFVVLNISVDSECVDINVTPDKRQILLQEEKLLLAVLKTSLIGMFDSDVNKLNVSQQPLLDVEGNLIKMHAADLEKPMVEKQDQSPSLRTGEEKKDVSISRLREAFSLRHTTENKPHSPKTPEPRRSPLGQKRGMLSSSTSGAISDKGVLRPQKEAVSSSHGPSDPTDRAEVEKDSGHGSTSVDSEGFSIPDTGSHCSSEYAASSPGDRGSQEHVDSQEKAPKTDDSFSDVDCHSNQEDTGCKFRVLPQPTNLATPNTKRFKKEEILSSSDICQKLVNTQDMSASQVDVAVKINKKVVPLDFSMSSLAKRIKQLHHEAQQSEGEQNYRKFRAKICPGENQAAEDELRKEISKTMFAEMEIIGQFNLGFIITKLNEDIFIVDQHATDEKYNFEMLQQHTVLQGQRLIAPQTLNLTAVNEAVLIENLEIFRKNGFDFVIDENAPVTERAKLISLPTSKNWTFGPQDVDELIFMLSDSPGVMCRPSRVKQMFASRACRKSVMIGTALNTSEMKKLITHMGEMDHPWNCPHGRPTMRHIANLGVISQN

B1: Exo1-FF-AA (enzyme, human, UniProt Q9UQ84 1-846, looked up)
chain: MGIQGLLQFIKEASEPIHVRKYKGQVVAVDTYCWLHKGAIACAEKLAKGEPTDRYVGFCMKFVNMLLSHGIKPILVFDGCTLPSKKEVERSRRERRQANLLKGKQLLREGKVSEARECFTRSINITHAMAHKVIKAARSQGVDCLVAPYEADAQLAYLNKAGIVQAIITEDSDLLAFGCKKVILKMDQFGNGLEIDQARLGMCRQLGDVFTEEKFRYMCILSGCDYLSSLRGIGLAKACKVLRLANNPDIVKVIKKIGHYLKMNITVPEDYINGFIRANNTFLYQLVFDPIKRKLIPLNAYEDDVDPETLSYAGQYVDDSIALQIALGNKDINTFEQIDDYNPDTAMPAHSRSHSWDDKTCQKSANVSSIWHRNYSPRPESGTVSDAPQLKENPSTVGVERVISTKGLNLPRKSSIVKRPRSAELSEDDLLSQYSLSFTKKTKKNSSEGNKSLSFSEVFVPDLVNGPTNKKSVSTPPRTRNKFATFLQRKNEESGAVVVPGTRSRAACSSDSTDCVSNKVSIQPLDETAVTDKENNLHESEYGDQEGKRLVDTDVARNSSDDIPNNHIPGDHIPDKATVFTDEESYSFESSKFTRTISPPTLGTLRSCFSWSGGLGDFSRTPSPSPSTALQQFRRKSDSPTSLPENNMSDVSQLKSEESSDDESHPLREEACSSQSQESGEFSLQSSNASKLSQCSSKDSDSEESDCNIKLLDSQSDQTSKLRLSHFSKKDTPLRNKVPGLYKSSSADSLSTTKIKPLGPARASGLSKKPASIQKRKHHNAENKPGLQIKLNELWKNFGFKKDSEKLPPCKKPLSPVRDNIQLTPEAEEDIFNKPECGRVQRAIFQ
B1: the binding result is reported as “binds”.

B2: Exo1-ΔC (domain or fragment, human, UniProt Q9UQ84 1-602, looked up)
chain: MGIQGLLQFIKEASEPIHVRKYKGQVVAVDTYCWLHKGAIACAEKLAKGEPTDRYVGFCMKFVNMLLSHGIKPILVFDGCTLPSKKEVERSRRERRQANLLKGKQLLREGKVSEARECFTRSINITHAMAHKVIKAARSQGVDCLVAPYEADAQLAYLNKAGIVQAIITEDSDLLAFGCKKVILKMDQFGNGLEIDQARLGMCRQLGDVFTEEKFRYMCILSGCDYLSSLRGIGLAKACKVLRLANNPDIVKVIKKIGHYLKMNITVPEDYINGFIRANNTFLYQLVFDPIKRKLIPLNAYEDDVDPETLSYAGQYVDDSIALQIALGNKDINTFEQIDDYNPDTAMPAHSRSHSWDDKTCQKSANVSSIWHRNYSPRPESGTVSDAPQLKENPSTVGVERVISTKGLNLPRKSSIVKRPRSAELSEDDLLSQYSLSFTKKTKKNSSEGNKSLSFSEVFVPDLVNGPTNKKSVSTPPRTRNKFATFLQRKNEESGAVVVPGTRSRFFCSSDSTDCVSNKVSIQPLDETAVTDKENNLHESEYGDQEGKRLVDTDVARNSSDDIPNNHIPGDHIPDKATVFTDEESYSFESSKFTRTISPPTL
With B2, the binding result is on record as “binds”.
